Experimental data published in paper PMC6529632, “Robust Stoichiometry of FliW-CsrA Governs Flagellin Homeostasis and Cytoplasmic Organization in Bacillus subtilis” (mBio, 2019).
Substitutions are numbered along the chain they refer to. Names may count otherwise. Each block holds one molecule with its values, some of them ahead of it.

Legend:
[1] = target: T1, CsrA-WT-His6 (Bacillus subtilis (3610?)) (UniProt P33911); assay: EMSA; conditions: 40 mM Tris-HCl pH 7.5, 4 mM MgCl2, 100 mM KCl, 20 ng/ul yeast RNA, 20 mM DTT, 10% glycerol, 4 U RNase inhibitor, 20 pM RNA, 37 C 30 min (FliW added for a …)
T1 sequence: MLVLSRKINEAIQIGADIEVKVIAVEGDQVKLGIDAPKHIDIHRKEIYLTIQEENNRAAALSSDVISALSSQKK

[2] = target: T2, FliW (Bacillus subtilis (3610?)) (UniProt P96503); assay: EMSA; conditions: 40 mM Tris-HCl pH 7.5, 4 mM MgCl2, 100 mM KCl, 20 ng/ul yeast RNA, 20 mM DTT, 10% glycerol, 4 U RNase inhibitor, 20 pM RNA, 37 C 30 min (FliW added for a …)
T2 sequence: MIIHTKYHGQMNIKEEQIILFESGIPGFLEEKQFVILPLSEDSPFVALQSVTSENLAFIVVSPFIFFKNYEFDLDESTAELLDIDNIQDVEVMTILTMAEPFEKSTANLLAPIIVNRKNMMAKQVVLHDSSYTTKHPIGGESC

[3] = target: T3, CsrA-Hetero (CsrA-WT-His6/CsrA-N55D-strep) N55D (Bacillus subtilis (3610?)) (UniProt P33911+P33911); assay: EMSA; conditions: 40 mM Tris-HCl pH 7.5, 4 mM MgCl2, 100 mM KCl, 20 ng/ul yeast RNA, 20 mM DTT, 10% glycerol, 4 U RNase inhibitor, 20 pM RNA, 37 C 30 min (FliW added for a …)
T3 sequence 1: T1 sequence
T3 sequence 2: T1 sequence with N55D

[4] = target: T4, CsrA-N55D-strep N55D (Bacillus subtilis (3610?)) (UniProt P33911); assay: EMSA; conditions: 40 mM Tris-HCl pH 7.5, 4 mM MgCl2, 100 mM KCl, 20 ng/ul yeast RNA, 20 mM DTT, 10% glycerol, 4 U RNase inhibitor, 20 pM RNA, 37 C 30 min (FliW added for a …)
T4 sequence: T1 sequence with N55D

[5] = system: FliW (Bacillus subtilis (3610?)); assay: EMSA; conditions: apparent Kd; FliW alone; 40 mM Tris-HCl pH 7.5, 4 mM MgCl2, 100 mM KCl, 20 ng/ul yeast RNA, 20 mM DTT, 10% glycerol, 4 U RNase inhibitor, 20 pM RNA, 37 C 30 min (FliW added for a …)
[6] = system: CsrA-WT-His6 (Bacillus subtilis (3610?)); assay: EMSA; conditions: apparent Kd; main text gives 290 nM; 40 mM Tris-HCl pH 7.5, 4 mM MgCl2, 100 mM KCl, 20 ng/ul yeast RNA, 20 mM DTT, 10% glycerol, 4 U RNase inhibitor, 20 pM RNA, 37 C 30 min (FliW added for a …)
[7] = system: CsrA-N55D-strep (Bacillus subtilis (3610?)); assay: EMSA; conditions: apparent Kd; 40 mM Tris-HCl pH 7.5, 4 mM MgCl2, 100 mM KCl, 20 ng/ul yeast RNA, 20 mM DTT, 10% glycerol, 4 U RNase inhibitor, 20 pM RNA, 37 C 30 min (FliW added for a …)
[8] = system: CsrA-Hetero (CsrA-WT-His6/CsrA-N55D-strep) (Bacillus subtilis (3610?)); assay: EMSA; conditions: apparent Kd; main text gives 460 nM; 40 mM Tris-HCl pH 7.5, 4 mM MgCl2, 100 mM KCl, 20 ng/ul yeast RNA, 20 mM DTT, 10% glycerol, 4 U RNase inhibitor, 20 pM RNA, 37 C 30 min (FliW added for a …)
[9] = target: T5, CsrA^N55D-strep (monomer co-expressed with CsrA^WT-His6) (Bacillus subtilis, UniProt P33911 1-74, N55D); assay: sequential affinity co-purification with SDS-PAGE; both chains co-expressed from one vector in E. coli; Ni-NTA by the His6 tag, then Strep-Tactin by the Strep tag, then size exclusion; Coomassie-stained denaturing gel, densitometry; conditions: partners not purified
T5 construct: CsrA of Bacillus subtilis with N55D; Same chain as in m2 and m3; Written as a single chain for the pair row of the heterodimer; also called CsrA^N55D-strep tag; source: Rosetta-gami E. coli, co-expressed with CsrA^WT-His6 from dual-expression vector pRO76
T5 sequence (looked up): T1 sequence with N55D

Molecule: GGUAGCCGGGAGGAGGCGCAAAAGACUCAGCCAGUUACAAAAUAAGGGCACAAGGACGUGCCUUAACAACAUAUUCAGGGAGGAACAAAACAAUGAGAAUU [hag 5' UTR transcript +1 to +100]
- Kd [1]: 287 nM
- Kd [2]: 1110 nM
- Kd [3]: 458 nM
- Kd [4]: 960 nM
- binding [4]: binds

Molecule: hag 5' UTR transcript +1 to +100
- Kd [5]: 1110 nM
- Kd [6]: 287 nM
- Kd [7]: 960 nM
- Kd [8]: 458 nM

- stoichiometry N [9]: 0.88
B1: CsrA^WT-His6 (monomer co-expressed with CsrA^N55D-strep) (natural protein, Bacillus subtilis, UniProt P33911 1-74, looked up)
chain: T1 sequence
notes: CsrA of Bacillus subtilis, wild type, amplified from pCSB9; Same chain as in m1 and m3; Written as a single chain for the pair row of the heterodimer; also called CsrA-His6; source: Rosetta-gami E. coli, co-expressed with CsrA^N55D-strep from dual-expression vector pRO76
